Test results published in the DeepSol protein solubility set.

Assay: soluble on expression in E. coli; label from the status in PepcDB or PDB records

In the case of “MGSDKIHHHHHHLVNFIRKNVLPQFGFSREHSTLYPLGNGHINQTFLVSDKSKSLVLQRINTQIFTDPKVVIQNAANISQHLLIKRQQLHYPLQVVSPIATVAGALYLDLGEQGFWRAIDYLPHSTTIEVVDTLNQAKLAAEAFGHFAEALSDLNPSCIADVIPNFLNLPQRIAQLREAKAGDTHNRFSHCIDWVGLCLSQTDLLATLVQYEAELPIRICHNDTKINNMLFDNRDMSSMAIIDLDTCMKGYLMYDFGDMVRAFCSPETEDSTNLTNVYARPEIVIAAATSYMESLGGIITPLEKRSLWLGTKVMSLMLGVRFLTDYLNGDTYFGVKYQTHNLDRAINQLTIYQSLLQQEAQLMPLFNS”, the “soluble on expression in E. coli” value was “not soluble”.

With “MNEETHNKKWQITHRKIQEIVFHLLKEHPIKEISVSQVCKKANINRSTFYDHFEDIYELFDVTQLNKRKELFESFIKQSNPRDKFNFYDLQSLTQFLTFIKENGWIYSIVLKSRQDFPITEGFEELYKVLINPLKKKRPELTDNELAYYFIAFQSSFTFILKRWSDNDYQEKEKEIAAILINSMPLILKNK” the “soluble on expression in E. coli” value was “soluble”.

In the case of “MGSDKIHHHHHHGADVETPSVSISVSPENPKVGEEVTVTINTDAQYLTLFTGDEGKNFERSRIKAIMEHDWDSFYEECYRVSYAKNGEKTLFYKYFKDYQSIEDVKKDFEFFGAIDNIQLVPYKKGDFPEALMEMSYIGTNQLKFTVTDRRIPSGIRMKPNIHIFGGLANQPGNTIIESRFVACDADRAIRKYSNDAWVAAYFGLHTEQLEDFQGYSAGYKYYTFQDERSYGAFQTNDPLSRRPTEGFYKLGDMYNRDTYLQPFLDHGEKIILRQVDMYVNGRSTFVAADDSPYKYDLDGDGVLESYECELDPATGLPVHEADYTKYKGFQGDVYLSFIEMGTDEYEPWNTGVSLGSVYTTGGIQKTYKYIYTGAGDFTITAVATNVGDKDYKGIDYSEERSNSLDDYSHKRALSSVKVSVKP”, the “soluble on expression in E. coli” value was “not soluble”.

For “MPRHRISGINWLAHYNELIRFWTRKTGSRGDVEDATHDVITKLLESNVSTISSPRSYLHSSIRNRLTDSYRQNKILDLVPIHDLPEDSHPLQPNDPVTHTCTMQLLTALKEALQELPLKCRQVFIWHRLEGYSQTEIAEKLDISVNMVEKYMIRATRHLRDRLQDHIPD”, the “soluble on expression in E. coli” value was “not soluble”.

In the case of “MPKIPITLITGFLGSGKTSFLSEYLNQTDHQGVALIINEIGQAALDQRILSVQYCGEKMLYLNAGCVCCNKRLDLVESLKATLNNYEWHGEILRRIIIETTGLANPAPILWTILSDTFLGVHFEIQSVVACVDALNAREHLTNNEAKEQIVFADSVLLTKTDLQNDSAALTKLKERIQALNPSAEIFDKRAIDYESLFSRKNRARNFMPLEHHHHHH”, the “soluble on expression in E. coli” value was “not soluble”.

In the case of “MSTVPISGRSQIMLVQDSEILSSSALQYKQFLSKVKISKNATSTAQVRRVGQKVAAATMLYLKQNGLGDMASQMKWEFNVVEDKAVNAFCMPGGKIVVYTGLLKLVGSDAELATVISHEVSHAVARHSNERISQEYLRQMGGNILGAAVSNKSAALQTVIGQAYGIGSQVLITLPYNRKQEYEADKIGLVFMAMAGYNPNAAITFWQKMAAQGNGRVEFLSTHPSDANRIAAIRQYMPEAMKHYKSKLEHHHHHH”, the “soluble on expression in E. coli” value was “soluble”.

For “EKALSKQYLQTAKDKITSLKNLKVIAITGSFGKTSTKNFLLQILQTTFNAHASPKSVNTLLGLANDINQNLDDRSEIYIAEAGARNKGDIKEITCLIEPHLVVVAEVGEQHLEYFKTLENICETKAELLDSKRLEKAFCYSVEKIKPYAPKDSPLIDYSSLVKNIQSTLKGTSFEMLIGSVWERFETKVLGEFSAYNIASAILIAKHLGLETERIKRLVLELNPIAHRLQLLEVNQKIIIDDSFNGNLKGMLEGIRLASLHKGRKVIVTPGLVESNTESNEALAQKIDGVFDVAIITGELNSKTIASQLKTPQKILLKDKAQLENILQATTIQGDLILFANDAPNYI”, the “soluble on expression in E. coli” value was “not soluble”.

For “MAHHHHHHMHDRIFAFAQQKVGLTAEQAECLSRKYWLNYGLSLYGYVKEYNVDAKEYSDFVHQCSYDKLHYNKPLIDMLLIMQYAPEAARGHDGPRSTNIDHLYYFTNANHSHARNVLDAQGLRPIFTRPRPVGLPVKENHPASEQAGAEDQVEWLGFSYEDQWQLTHPEIANKPMRQAYEAIYKAIEDQVAEDAALVATTTTAGSGSAFASSSASRNSDIAEEVKNKRARLRPENFVMVDDSLMNIDAPLELGWSAVWYAHDTQELPTDVKDNASAPLYAAAVASGRLQVIRNILELRAAVERIREVNSRSASS”, the “soluble on expression in E. coli” value was “not soluble”.

In the case of “SLSPKFKTIIIDDIPSCVEDIKKIILKDKRFEVVATASNGLEGVDQIRLHNPDLVLTDIEMPVMNGFDMVIGLREMLDLTPTIIFITVYDQYAIQAIRCSAFDFILKTGLDQELPMALNEYVKKRAAKQPLLSKQIESLIKSFERNKQIIIRSNICDNFINPMDIIYISTSKNHANSIYLKNGECIATNQSLSHFEKILSETDFFRLNKSNIININFIKEIRKETNAFRRKYVYMKYTEADIKLAIPPGKYAKLFDFIEENSSEG”, the “soluble on expression in E. coli” value was “not soluble”.

With “MADFITRAIELDEQYSQAILGINDQNLKVLENLLDCTIFVRGTRATLSGRDFEVSRGIRVLQELQSMAKRGHAISPDAVKNAVAIVAEDTPHSVNAVLASDIVARRGKVIRAKTLGQKDYVDAIDHNTIVFGLGPAGSGKTYLAMAKAVQALQAKQVNRIILTRPAVEAGEKLGFLPGTLNEKIDPYLRPLHDALRDMVDPEIIPKLMEAGIVEVAPLAYMRGRTLNDAFVILDEAQNTTPAQMKMFLTRLGFGSKMVVTGDITQVDLPGGQKSGLRLVRDILRGVEGVHFAELGSDDVVRHQLVGRIVDAYDAYEEQLKDK” the “soluble on expression in E. coli” value was “not soluble”.

In the case of “GSFTRFDLAIDDKKTYFSIPELLKKAQKGECISRFRKSDFNGSFDLSDGITGGTTIYFGSKKSEAYLCFYEKNYEQAEKYNIPLEELGDWNRYELRLKNERAQVAIDALLKTKDLTLIAMQIINNYVRFVDADENITREHWKTSLFWSDFIGDVGRLPLYVKPQKDFYQKSRNWLRNSCAPTMKMVLEADEHLGKTDLSDMIAEAELADKHKKMLDVYMADVADMVV”, the “soluble on expression in E. coli” value was “not soluble”.

In the case of “MGSDKIHHHHHHMQVNRLFQIIYILLEKNSVTARELAEKIEVSKRTIYRDIETLSTAGIPVYMTKGKGGGISILPNFILNKAILTEEEKSEIISSIRAVNAVNFSDSEAEKVLIKLNSILGENDTDWIEVDFSNWGNAEKEKETFNNLKTAILSKKVVKFDYSSAKGENISRKVCPLKLCFKGQSWYMYGYCGIRNDYRFFKLRRIKDLYVSEESFNIKAPKKIMKEDNVFYDEFITLKMKISSKMAYRIYDEFEDFKKLDDGSFIVTAEYPKGEWLFSYISSFGEECEVLAPQEIREEIKNKIEKMLLNYS”, the “soluble on expression in E. coli” value was “not soluble”.

In the case of “RQDARERERLAVLAASRTALAPLDGPPQVLWTSDREEVLWASARTPDGLLVVPGTQGERVVRALDPATGDVVWERELLPPRDTAPAPNEDVAGASCVGHGAAGDLLACLASDAMTVFDERTTDIRYVAPTVVRLVLLDPQDGTVVADLSDAVAGTGTAPAYVALGDLVVVSSVVDDATRVVAVAPDGSVAWRTEVPPSTRPAPGLPGLRRADVLALGDHLVVATAEEMRLLDATGATVRTVPLADDESLGGAEGTTAFARTGLDRVTLMQVGSEVVARGEGTKVVRADHVGELPGGRVRADVDDGSDPRLVLTSDAEGLHGWDAEGVRRWSADVQVTRSAMVLAGRVHATTRADALVTFDARTGAELWRRDGLVLDQAPLADGRVLLVRERGADGAALDLVALDVADGEVAWRTPWPEGVDQLQAVFGVIVGLSYDVEGEDWSVTALG”, the “soluble on expression in E. coli” value was “not soluble”.

With “MRKMKTERAKEILVQLLKIPSPSGREDRVALYIMEFLHKLNYDVHIESDGEIIDLVVNPGAELFFEVHMDTIDPRAEPFVRGNIVYGTGASDIKGGIASILLMLEQLRKEGKDLNVGIVFVSDEEKGGRGSALFMERYRPKMAVVLEPTDLEVHIAHAGNIEAYFEVDGKEAHGACPESGINAIEQTFEMLQKLKDLEPFKAKGKYFDPHIGIQELICENPYYLIPALCKGRLEARLLPDQEVEDILDLIDPILDEYTVKYEYTEIWDGYELSEDEEIVQIAKSAMDMVGLDEFGAMRSWTDAINFTYNGTKTIVFGPGNLDISHTKQERIDVRDVVKASEFLLAVNEIFGNKS” the “soluble on expression in E. coli” value was “soluble”.

For “MRPMTIDIDELAFALDTPGIDHYLDLYSGKVLLISAEAPDPELDALLENEPERLLLIDPLSTTQSLGLMQDFLREVEEPHAYATLANALQSRKPFKAFKHSLMEYPELLQDWYRYQNERLREWALDWLEDNDIQPAARQSPTSLLPPPGKPFA”, the “soluble on expression in E. coli” value was “not soluble”.

In the case of “MGSDKIHHHHHHADNAPAKVQTALKKMYPKADGIAWSQDGGYYCADFMMNGYEKNVWFNAQGQWQMTQTEWGDTDELSATVYNAYASGPYSGWQVEDVTYVEFPKWQPIIVIKVGQQNVDIQYQLFYSPNGTLLRTRNVSYMGDILGPGTFL”, the “soluble on expression in E. coli” value was “not soluble”.

For “MSNTPIELKGSSFTLSVVHLHEAEPEVIRQALEDKIAQAPAFLKHAPVVINVSGLESPVNWPELHKIVTSTGLRIIGVSGCKDASLKVEIDRMGLPLLTEGKEKAVRPAPVEPATPSEPPQNANPITKTRLIDVPVRSGQRIYAPQCDLIVTSHVSAGAELIADGNIHVYGMMRGRALAGASGDREAQIFCTHLTAELVSIAGVYWLSDKIPAEFYGKAARLRLADNALTVQPLN”, the “soluble on expression in E. coli” value was “not soluble”.

In the case of “QVQLVASGGGSVQAGGSLRLSCAASGYTFSSYPMGWYRQAPGKECELSARIFSDGSANYADSVKGRFTISRDNAANTAYLQMDSLKPEDTAVYYCAAGPGSGKLVVAGRTCYGPNYWGQGTQVTVSS”, the “soluble on expression in E. coli” value was “soluble”.

In the case of “MQKINIDRHATAQINMLANKLMLKSSTAYTQKFGIGMTEWRIISVLSSASDCSVQKISDILGLDKAAVSRTVKKLEEKKYIEVNGHSEDKRTYAINLTEMGQELYEVASDFAIEREKQLLEEFEEAEKDQLFILLKKLRNKVDQM”, the “soluble on expression in E. coli” value was “soluble”.

In the case of “GSHMKNSVSVDLPGSMKVLVSKSSNADGKYDLIATVDALELSGTSDKNNGSGVLEGVKADASKVKLTISDDLGQTTLEVFKSDGSTLVSKKVTSKDKSSTEEKFNEKGELSEKKITRADKSSTEEKFNEKGELSEKKITRADKSSTEEKFNEKGELSEKKITRADKSSTEEKFNEKGEVSEKIITRADGTRLEYTGIKSDGSGKAKEVLKGYVLEGTLTAEKTTLVVKEGTVTLSKNISKSGEVSVELNDTDSSAATKKTAAWNSGTSTLTITVNSKKTKDLVFTSSNTITVQQYDSNGTSLEGSAVEITKLDEIKNALK”, the “soluble on expression in E. coli” value was “soluble”.

For “MGSDKIHHHHHHMPITFVDRESELKFLESLWKRRNSFVPVYGRRRIGKTRLVKEFIKGKPSVYYLSRNSSYNDNLYGFSQVVLEAYPSPYLTPKSFSTFTDIFRYLSEKGKVVVVIDEFPYLINSDKRILSEFQYIIDEIVRNSEIHLILVGSSIGMMEEHVLSQKSPLYGRRDGQIRLHSLDFFSSWKLLGVSLEEAIKIYGVTGGIPAYLILFKKFEDLKNVAFSKQGFLYAEADFLLSSELREPRVYKLILKAIAEGKRRFNEISTFTGIPRPNLFKYIEVLERLGLLRREAPITAPPKTKNTRYKIVDNYIAFYFRFIEKYRHEIELESINFWEEFLEDYNNYLGEVFEDIACQFLVRLNKKRMFPFRFSKIGRWWHKNEEIDLVALDKREKRASFIEVKWKTLKEGEARSILRDLERKSKLVGLDYWNKNYGLIAKHIEGKENLREEGFLAWDLRDFELVKKE”, the “soluble on expression in E. coli” value was “not soluble”.
